Data: patent US20160120951A1 (ZEALAND PHARMA A S, published 2016)
Numbered stars: 1 amine (or outer) side, 2 acyl side, 3 side chain; on linkers, the order of the positions; unused ones are H or OH. Square brackets hold non-standard residues; d marks the D form. Side chains are listed from the residue outwards. * marks the point of attachment. isoGlu = used interchangeably with γ-Glu; γGlu = O=C(O)[C@H](CCC(=O)[*:2])N[*:1]; Palmitoyl = CCCCCCCCCCCCCCCC(=O)*; Aib = CC(C)(N)C(=O)O

What was measured:
[1] = target: human glucagon-like peptide 1 receptor (GLP-1R) (human, UniProt P43220 24-463); test: cell-based or functional assay
[2] = target: human glucagon receptor (Glucagon-R) (human, UniProt P47871 26-477); test: cell-based or functional assay

Chain of human glucagon-like peptide 1 receptor (GLP-1R) (P43220 24-463): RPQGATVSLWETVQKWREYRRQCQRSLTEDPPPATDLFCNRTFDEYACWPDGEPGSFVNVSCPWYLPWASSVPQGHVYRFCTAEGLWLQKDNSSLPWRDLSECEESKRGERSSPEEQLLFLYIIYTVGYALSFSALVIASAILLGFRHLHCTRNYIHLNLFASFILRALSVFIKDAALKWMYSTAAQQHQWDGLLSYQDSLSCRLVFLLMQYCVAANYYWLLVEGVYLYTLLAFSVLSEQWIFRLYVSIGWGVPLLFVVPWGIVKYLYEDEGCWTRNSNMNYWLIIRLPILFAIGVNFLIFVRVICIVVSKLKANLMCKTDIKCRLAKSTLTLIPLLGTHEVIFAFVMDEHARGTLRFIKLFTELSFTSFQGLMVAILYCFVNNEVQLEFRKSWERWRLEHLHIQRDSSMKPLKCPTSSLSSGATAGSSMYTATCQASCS

EC50 (nM) GLP-1R, cAMP formation [1] [nM]	EC50 (nM) GluR, cAMP formation [2] [nM]	Binder
0.069	0.103	HXQGTFTSDYSKYLDSKAAHDFVEWLLSA (Aib at position 2; K(Octadecanoyl-isoGlu) at position 17; C-terminal amide (NH2)) [Compound 25]
0.199	0.123	HXQGTFTSDYSKYLDSKAAHDFVEWLLSA (Aib at position 2; K(Hexadecanoyl-[8-Aminooctanoyl]) at position 17; C-terminal amide (NH2)) [Compound 29]
0.077	0.15	HXQGTFTSDYSKYLDSKAAHDFVEWLLSA (Aib at position 2; K(Hexadecanoyl-isoGlu) at position 17; free C-terminal acid (OH)) [Compound 21]
0.149	0.108	HXQGTFTSDYSKYLDSKAAHDFVEWLLSA (Aib at position 2; K(Hexadecanoyl-E) (Hexadecanoyl-αGlu) at position 17; C-terminal amide (NH2)) [Compound 28]
0.202	0.18	H-H[Aib]QGTFTSDYSKYLDSKAAK([γGlu-Palmitoyl])DFVEWLLSA-NH2 (SMILES CCCCCCCCCCCCCCCC(=O)N[C@@H](CCC(=O)NCCCC[C@H](NC(=O)[C@H](C)NC(=O)[C@H](C)NC(=O)[C@H](CCCCN)NC(=O)[C@H](CO)NC(=O)[C@H](CC(=O)O)NC(=O)[C@H](CC(C)C)NC(=O)[C@H](Cc1ccc(O)cc1)NC(=O)[C@H](CCCCN)NC(=O)[C@H](CO)NC(=O)[C@H](Cc1ccc(O)cc1)NC(=O)[C@H](CC(=O)O)NC(=O)[C@H](CO)NC(=O)[C@@H](NC(=O)[C@H](Cc1ccccc1)NC(=O)[C@@H](NC(=O)CNC(=O)[C@H](CCC(N)=O)NC(=O)C(C)(C)NC(=O)[C@@H](N)Cc1c[nH]cn1)[C@@H](C)O)[C@@H](C)O)C(=O)N[C@@H](CC(=O)O)C(=O)N[C@@H](Cc1ccccc1)C(=O)N[C@H](C(=O)N[C@@H](CCC(=O)O)C(=O)N[C@@H](Cc1c[nH]c2ccccc12)C(=O)N[C@@H](CC(C)C)C(=O)N[C@@H](CC(C)C)C(=O)N[C@@H](CO)C(=O)N[C@@H](C)C(N)=O)C(C)C)C(=O)O) [Compound 35]
0.109	0.053	H-H[Aib]QGTFTSDYSKYLDK([γGlu-Palmitoyl])KAAHDFVEWLLSA-NH2 (SMILES CCCCCCCCCCCCCCCC(=O)N[C@@H](CCC(=O)NCCCC[C@H](NC(=O)[C@H](CC(=O)O)NC(=O)[C@H](CC(C)C)NC(=O)[C@H](Cc1ccc(O)cc1)NC(=O)[C@H](CCCCN)NC(=O)[C@H](CO)NC(=O)[C@H](Cc1ccc(O)cc1)NC(=O)[C@H](CC(=O)O)NC(=O)[C@H](CO)NC(=O)[C@@H](NC(=O)[C@H](Cc1ccccc1)NC(=O)[C@@H](NC(=O)CNC(=O)[C@H](CCC(N)=O)NC(=O)C(C)(C)NC(=O)[C@@H](N)Cc1c[nH]cn1)[C@@H](C)O)[C@@H](C)O)C(=O)N[C@@H](CCCCN)C(=O)N[C@@H](C)C(=O)N[C@@H](C)C(=O)N[C@@H](Cc1c[nH]cn1)C(=O)N[C@@H](CC(=O)O)C(=O)N[C@@H](Cc1ccccc1)C(=O)N[C@H](C(=O)N[C@@H](CCC(=O)O)C(=O)N[C@@H](Cc1c[nH]c2ccccc12)C(=O)N[C@@H](CC(C)C)C(=O)N[C@@H](CC(C)C)C(=O)N[C@@H](CO)C(=O)N[C@@H](C)C(N)=O)C(C)C)C(=O)O) [Compound 34]
0.207	0.147	H-H[Aib]QGTFTSDYSKYLDSKAAHDFVEWLLK([isoGlu-Palmitoyl])A-NH2 [Compound 37]
0.014	26.4	H-H[Aib]EGTFTSDYSKYLDSK([γGlu-Palmitoyl])AAHDFVEWLLSA-NH2 (SMILES CCCCCCCCCCCCCCCC(=O)N[C@@H](CCC(=O)NCCCC[C@H](NC(=O)[C@H](CO)NC(=O)[C@H](CC(=O)O)NC(=O)[C@H](CC(C)C)NC(=O)[C@H](Cc1ccc(O)cc1)NC(=O)[C@H](CCCCN)NC(=O)[C@H](CO)NC(=O)[C@H](Cc1ccc(O)cc1)NC(=O)[C@H](CC(=O)O)NC(=O)[C@H](CO)NC(=O)[C@@H](NC(=O)[C@H](Cc1ccccc1)NC(=O)[C@@H](NC(=O)CNC(=O)[C@H](CCC(=O)O)NC(=O)C(C)(C)NC(=O)[C@@H](N)Cc1c[nH]cn1)[C@@H](C)O)[C@@H](C)O)C(=O)N[C@@H](C)C(=O)N[C@@H](C)C(=O)N[C@@H](Cc1c[nH]cn1)C(=O)N[C@@H](CC(=O)O)C(=O)N[C@@H](Cc1ccccc1)C(=O)N[C@H](C(=O)N[C@@H](CCC(=O)O)C(=O)N[C@@H](Cc1c[nH]c2ccccc12)C(=O)N[C@@H](CC(C)C)C(=O)N[C@@H](CC(C)C)C(=O)N[C@@H](CO)C(=O)N[C@@H](C)C(N)=O)C(C)C)C(=O)O) [Compound 22]
0.152	0.147	HXQGTFTSDYSKYLDSKAAHDFVEWLLSA (Aib at position 2; K(Hexadecanoyl-[4-Aminobutanoyl]) at position 17; C-terminal amide (NH2)) [Compound 27]
0.131	0.389	HXQGTFTSDYSKYLDSKAAHDFVEWLLSA (Aib at position 2; K(Hexadecanoyl-isoGlu) at position 12; C-terminal amide (NH2)) [Compound 33]
0.161	0.133	HXQGTFTSDYSKYLDSKAAHDFVEWLLSA (Aib at position 2; K([2-Butyloctanoyl]-isoGlu) at position 17; C-terminal amide (NH2)) [Compound 24]
0.195	0.193	HXQGTFTSDYSKYLDSXAAHDFVEWLLSA (Aib at position 2; Orn(Hexadecanoyl-isoGlu) at position 17; C-terminal amide (NH2)) [Compound 32]
0.14	0.124	HXQGTFTSDYSKYLDSKAAHDFVEWLLSA (Aib at position 2; K(Hexadecanoyl) at position 17; C-terminal amide (NH2)) [Compound 23]
0.066	0.091	H-H[Aib]QGTFTSDYSKYLDSK([γGlu-Palmitoyl])AAHDFVEWLLS-OH (SMILES CCCCCCCCCCCCCCCC(=O)N[C@@H](CCC(=O)NCCCC[C@H](NC(=O)[C@H](CO)NC(=O)[C@H](CC(=O)O)NC(=O)[C@H](CC(C)C)NC(=O)[C@H](Cc1ccc(O)cc1)NC(=O)[C@H](CCCCN)NC(=O)[C@H](CO)NC(=O)[C@H](Cc1ccc(O)cc1)NC(=O)[C@H](CC(=O)O)NC(=O)[C@H](CO)NC(=O)[C@@H](NC(=O)[C@H](Cc1ccccc1)NC(=O)[C@@H](NC(=O)CNC(=O)[C@H](CCC(N)=O)NC(=O)C(C)(C)NC(=O)[C@@H](N)Cc1c[nH]cn1)[C@@H](C)O)[C@@H](C)O)C(=O)N[C@@H](C)C(=O)N[C@@H](C)C(=O)N[C@@H](Cc1c[nH]cn1)C(=O)N[C@@H](CC(=O)O)C(=O)N[C@@H](Cc1ccccc1)C(=O)N[C@H](C(=O)N[C@@H](CCC(=O)O)C(=O)N[C@@H](Cc1c[nH]c2ccccc12)C(=O)N[C@@H](CC(C)C)C(=O)N[C@@H](CC(C)C)C(=O)N[C@@H](CO)C(=O)O)C(C)C)C(=O)O) [Compound 18]
0.048	0.483	H-H[Aib]QGTFTSDYSKYLDSK([γGlu-Palmitoyl])AAHDFVEWLL-OH (SMILES CCCCCCCCCCCCCCCC(=O)N[C@@H](CCC(=O)NCCCC[C@H](NC(=O)[C@H](CO)NC(=O)[C@H](CC(=O)O)NC(=O)[C@H](CC(C)C)NC(=O)[C@H](Cc1ccc(O)cc1)NC(=O)[C@H](CCCCN)NC(=O)[C@H](CO)NC(=O)[C@H](Cc1ccc(O)cc1)NC(=O)[C@H](CC(=O)O)NC(=O)[C@H](CO)NC(=O)[C@@H](NC(=O)[C@H](Cc1ccccc1)NC(=O)[C@@H](NC(=O)CNC(=O)[C@H](CCC(N)=O)NC(=O)C(C)(C)NC(=O)[C@@H](N)Cc1c[nH]cn1)[C@@H](C)O)[C@@H](C)O)C(=O)N[C@@H](C)C(=O)N[C@@H](C)C(=O)N[C@@H](Cc1c[nH]cn1)C(=O)N[C@@H](CC(=O)O)C(=O)N[C@@H](Cc1ccccc1)C(=O)N[C@H](C(=O)N[C@@H](CCC(=O)O)C(=O)N[C@@H](Cc1c[nH]c2ccccc12)C(=O)N[C@@H](CC(C)C)C(=O)N[C@@H](CC(C)C)C(=O)O)C(C)C)C(=O)O) [Compound 19]
0.097	0.116	HXQGTFTSDYSKYLDSKAAHDFVEWLLSA (Aib at position 2; K(Dodecanoyl-isoGlu) at position 17; C-terminal amide (NH2)) [Compound 26]
0.057	13.3	H-H[Aib]EGTFTSDYSKYLDSK([γGlu-Palmitoyl])AAHDFVEWLLSA-OH (SMILES CCCCCCCCCCCCCCCC(=O)N[C@@H](CCC(=O)NCCCC[C@H](NC(=O)[C@H](CO)NC(=O)[C@H](CC(=O)O)NC(=O)[C@H](CC(C)C)NC(=O)[C@H](Cc1ccc(O)cc1)NC(=O)[C@H](CCCCN)NC(=O)[C@H](CO)NC(=O)[C@H](Cc1ccc(O)cc1)NC(=O)[C@H](CC(=O)O)NC(=O)[C@H](CO)NC(=O)[C@@H](NC(=O)[C@H](Cc1ccccc1)NC(=O)[C@@H](NC(=O)CNC(=O)[C@H](CCC(=O)O)NC(=O)C(C)(C)NC(=O)[C@@H](N)Cc1c[nH]cn1)[C@@H](C)O)[C@@H](C)O)C(=O)N[C@@H](C)C(=O)N[C@@H](C)C(=O)N[C@@H](Cc1c[nH]cn1)C(=O)N[C@@H](CC(=O)O)C(=O)N[C@@H](Cc1ccccc1)C(=O)N[C@H](C(=O)N[C@@H](CCC(=O)O)C(=O)N[C@@H](Cc1c[nH]c2ccccc12)C(=O)N[C@@H](CC(C)C)C(=O)N[C@@H](CC(C)C)C(=O)N[C@@H](CO)C(=O)N[C@@H](C)C(=O)O)C(C)C)C(=O)O) [Compound 20]
0.103	0.151	HXQGTFTSDYSKYLDSKAAHDFVEWLLSA (Aib at position 2; K(Hexadecanoyl-[3-Aminopropanoyl]) at position 17; C-terminal amide (NH2)) [Compound 31]
0.16	0.24	H-H[Aib]QGTFTSDYSKYLDSK([isoGlu-Palmitoyl])AAKDFVEWLLSA-NH2 [Compound 39]
0.132	0.11	HXQGTFTSDYSKYLDSKAAHDFVEWLLSA (Aib at position 2; K(Hexadecanoyl-isoLys) at position 17; C-terminal amide (NH2)) [Compound 30]
0.191	0.213	H-H[Aib]QGTFTSDYSKYLDSKAAHDFVK([isoGlu-Palmitoyl])WLLSA-NH2 [Compound 36]
